# Reference: FireProtDB (doi:10.1021/bi000442n)
# “And” between values parts separate entries of the source, which are not always exact repeats. Equal entries are not always repeated.
# Conditions: Mus musculus; pH 7.5; Thermal; CD; KH2PO4-K2HPO4 10 mM; NaCl 0.0 mM; reversible: yes; whole UniProt chain shown
protein,measurement,value
"Signal peptide peptidase wild type, Q9D8V0 (protein) MDSAVSDPHNGSAEAGTPANGTTRPPSTPEGIALAYGSLLLMALLPIFFGALRSVRCARGKSSSDMPETITSRDAARFPIIASCTLLGLYLFFKIFSQEYINLLLSMYFFVLGILALSHTISPFMNKFFPANFPNRQYQLLFTQGSGENKEEIINYEFDTKDLVCLGLSSVVGVWYLLRKHWIANNLFGLAFSLNGVELLHLNNVSTGCILLGGLFIYDIFWVFGTNVMVTVAKSFEAPIKLVFPQDLLEKGLEADNFAMLGLGDIVIPGIFIALLLRFDISLKKNTHTYFYTSFAAYIFGLGLTIFIMHIFKHAQPALLYLVPACIGFPVLVALAKGEVAEMFSYEESNPKDPAAETESKEESTEASASKRLEKKEK",Tm,43.7 °C and 41 °C
